Assay results published in patent publication US20220010021A1 (Sanofi, published 2022).
Positions count from the first letter of the chain named.

T1: beta-Klotho (KLB) (Homo sapiens (Human), UniProt Q86Z14 1-996)
T1 construct: also called β-Klotho; not shown: C-terminal His tag of the bought R&D Systems protein
T1 sequence: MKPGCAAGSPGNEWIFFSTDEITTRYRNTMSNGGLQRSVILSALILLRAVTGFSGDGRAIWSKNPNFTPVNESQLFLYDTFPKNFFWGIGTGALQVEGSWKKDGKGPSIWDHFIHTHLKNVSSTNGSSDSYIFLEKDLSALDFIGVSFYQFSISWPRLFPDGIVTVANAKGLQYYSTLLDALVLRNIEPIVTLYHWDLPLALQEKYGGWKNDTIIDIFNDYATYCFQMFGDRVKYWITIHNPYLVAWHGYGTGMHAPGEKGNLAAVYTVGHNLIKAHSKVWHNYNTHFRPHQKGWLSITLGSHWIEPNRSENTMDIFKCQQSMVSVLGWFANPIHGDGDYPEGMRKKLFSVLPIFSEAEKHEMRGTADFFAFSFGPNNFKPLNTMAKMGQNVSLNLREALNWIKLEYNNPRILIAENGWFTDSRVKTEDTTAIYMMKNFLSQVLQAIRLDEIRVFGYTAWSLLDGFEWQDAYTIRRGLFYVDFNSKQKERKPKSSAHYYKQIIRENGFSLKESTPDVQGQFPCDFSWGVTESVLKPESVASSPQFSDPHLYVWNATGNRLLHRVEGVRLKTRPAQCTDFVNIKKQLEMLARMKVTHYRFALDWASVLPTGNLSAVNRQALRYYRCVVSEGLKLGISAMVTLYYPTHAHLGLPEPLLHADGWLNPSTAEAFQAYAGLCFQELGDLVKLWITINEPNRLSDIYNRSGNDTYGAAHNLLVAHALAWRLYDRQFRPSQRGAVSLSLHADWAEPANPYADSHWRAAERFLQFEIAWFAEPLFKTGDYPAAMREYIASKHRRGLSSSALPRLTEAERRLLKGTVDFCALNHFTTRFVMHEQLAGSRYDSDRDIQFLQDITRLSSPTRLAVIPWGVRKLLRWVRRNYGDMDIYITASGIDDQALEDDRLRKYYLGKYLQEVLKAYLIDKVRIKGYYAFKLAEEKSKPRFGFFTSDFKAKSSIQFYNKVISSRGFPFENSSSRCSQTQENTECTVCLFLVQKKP

B1: 16H7 variant with light chain substitution N93D (antibody, human IgG4 S228P, lambda, V domains shown)
VH: not shown
VL: SYVLTQPPSVSVAPGQTARITCGGNNIGSESVHWYQQKPGQAPVLVVYDDSDRPSGIPERFSGSNSGNTATLTISRVEAGDEADYYCQVWDGDSDHVVFGGGTKLTVLG
notes: IgG4 backbone was used
B2: 16H7 variant with light chain substitution V97F (antibody, human IgG4 S228P, lambda, V domains shown)
VH: not shown
VL: B1 VL with D93N, V97F
notes: IgG4 backbone was used
B3: 16H7 variant with light chain substitution V98C (antibody, human IgG4 S228P, lambda, V domains shown)
VH: not shown
VL: B1 VL with D93N, V98C
notes: IgG4 backbone was used
B4: 16H7 variant with light chain substitution N93Y (antibody, human IgG4 S228P, lambda, V domains shown)
VH: not shown
VL: B1 VL with D93Y
notes: IgG4 backbone was used
B5: 16H7 variant with light chain substitution V97L (antibody, human IgG4 S228P, lambda, V domains shown)
VH: not shown
VL: B1 VL with D93N, V97L
notes: IgG4 backbone was used
B6: 16H7 variant with light chain substitution S94C (antibody, human IgG4 S228P, lambda, V domains shown)
VH: not shown
VL: B1 VL with D93N, S94C
notes: IgG4 backbone was used
B7: 16H7 variant with light chain substitution S94M (antibody, human IgG4 S228P, lambda, V domains shown)
VH: not shown
VL: B1 VL with D93N, S94M
notes: IgG4 backbone was used
B8: 16H7 variant with light chain substitution V97T (antibody, human IgG4 S228P, lambda, V domains shown)
VH: not shown
VL: B1 VL with D93N, V97T
notes: IgG4 backbone was used
B9: 16H7 variant with light chain substitution S94R (antibody, human IgG4 S228P, lambda, V domains shown)
VH: not shown
VL: B1 VL with D93N, S94R
notes: IgG4 backbone was used
B10: 16H7 variant with light chain substitution V98F (antibody, human IgG4 S228P, lambda, V domains shown)
VH: not shown
VL: B1 VL with D93N, V98F
notes: IgG4 backbone was used
B11: 16H7 variant with light chain substitution S94N (antibody, human IgG4 S228P, lambda, V domains shown)
VH: not shown
VL: B1 VL with D93N, S94N
notes: IgG4 backbone was used
B12: 16H7 variant with light chain substitution S94A (antibody, human IgG4 S228P, lambda, V domains shown)
VH: not shown
VL: B1 VL with D93N, S94A
notes: IgG4 backbone was used
B13: 16H7 variant with light chain substitution S94Y (antibody, human IgG4 S228P, lambda, V domains shown)
VH: not shown
VL: B1 VL with D93N, S94Y
notes: IgG4 backbone was used
B14: 16H7 variant with light chain substitution N93V (antibody, human IgG4 S228P, lambda, V domains shown)
VH: not shown
VL: B1 VL with D93V
notes: IgG4 backbone was used
B15: 16H7 variant with light chain substitution N93F (antibody, human IgG4 S228P, lambda, V domains shown)
VH: not shown
VL: B1 VL with D93F
notes: IgG4 backbone was used
B16: 16H7 variant with light chain substitution S94W (antibody, human IgG4 S228P, lambda, V domains shown)
VH: not shown
VL: B1 VL with D93N, S94W
notes: IgG4 backbone was used
B17: 16H7 variant with light chain substitution N93R (antibody, human IgG4 S228P, lambda, V domains shown)
VH: not shown
VL: B1 VL with D93R
notes: IgG4 backbone was used
B18: 16H7 variant with light chain substitution V97C (antibody, human IgG4 S228P, lambda, V domains shown)
VH: not shown
VL: B1 VL with D93N, V97C
notes: IgG4 backbone was used
B19: 16H7 variant with light chain substitution V97M (antibody, human IgG4 S228P, lambda, V domains shown)
VH: not shown
VL: B1 VL with D93N, V97M
notes: IgG4 backbone was used
B20: 16H7 variant with light chain substitution S94D (antibody, human IgG4 S228P, lambda, V domains shown)
VH: not shown
VL: B1 VL with D93N, S94D
notes: IgG4 backbone was used
B21: 16H7 variant with light chain substitution V97N (antibody, human IgG4 S228P, lambda, V domains shown)
VH: not shown
VL: B1 VL with D93N, V97N
notes: IgG4 backbone was used
B22: 16H7 variant with light chain substitution N93S (antibody, human IgG4 S228P, lambda, V domains shown)
VH: not shown
VL: B1 VL with D93S
notes: IgG4 backbone was used
B23: 16H7 variant with light chain substitution N93T (antibody, human IgG4 S228P, lambda, V domains shown)
VH: not shown
VL: B1 VL with D93T
notes: IgG4 backbone was used
B24: 16H7 variant with light chain substitution S94V (antibody, human IgG4 S228P, lambda, V domains shown)
VH: not shown
VL: B1 VL with D93N, S94V
notes: IgG4 backbone was used
B25: 16H7 variant with light chain substitution S94I (antibody, human IgG4 S228P, lambda, V domains shown)
VH: not shown
VL: B1 VL with D93N, S94I
notes: IgG4 backbone was used
B26: 16H7 variant with light chain substitution S94L (antibody, human IgG4 S228P, lambda, V domains shown)
VH: not shown
VL: B1 VL with D93N, S94L
notes: IgG4 backbone was used
B27: 16H7 variant with light chain substitution S94E (antibody, human IgG4 S228P, lambda, V domains shown)
VH: not shown
VL: B1 VL with D93N, S94E
notes: IgG4 backbone was used
B28: 16H7 variant with light chain substitution S94F (antibody, human IgG4 S228P, lambda, V domains shown)
VH: not shown
VL: B1 VL with D93N, S94F
notes: IgG4 backbone was used
B29: 16H7 variant with light chain substitution V97I (antibody, human IgG4 S228P, lambda, V domains shown)
VH: not shown
VL: B1 VL with D93N, V97I
notes: IgG4 backbone was used
B30: 16H7 variant with light chain substitution S94T (antibody, human IgG4 S228P, lambda, V domains shown)
VH: not shown
VL: B1 VL with D93N, S94T
notes: IgG4 backbone was used

Experiments:
[1] = target: cell surface receptor composed of the tyrosine kinase receptor FGFR1c and co-receptor beta-Klotho (KLB) (human, UniProt P11362 22-822; Q86Z14 1-1044); assay: cell-based or functional assay
[2] = target: T1, beta-Klotho (KLB); assay: BLI (Octet) off-rate screening, mAb from supernatant on anti-hIgG Fc sensor, 5 nmol/L KLB;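 also: dissociation followed for 1800 s in D-PBS plus 0.1% BSA, antibody supernatants applied at 25 µg/mL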

Chain of cell surface receptor composed of the tyrosine kinase receptor FGFR1c and co-receptor beta-Klotho (KLB) (P11362 22-822, one chain of several): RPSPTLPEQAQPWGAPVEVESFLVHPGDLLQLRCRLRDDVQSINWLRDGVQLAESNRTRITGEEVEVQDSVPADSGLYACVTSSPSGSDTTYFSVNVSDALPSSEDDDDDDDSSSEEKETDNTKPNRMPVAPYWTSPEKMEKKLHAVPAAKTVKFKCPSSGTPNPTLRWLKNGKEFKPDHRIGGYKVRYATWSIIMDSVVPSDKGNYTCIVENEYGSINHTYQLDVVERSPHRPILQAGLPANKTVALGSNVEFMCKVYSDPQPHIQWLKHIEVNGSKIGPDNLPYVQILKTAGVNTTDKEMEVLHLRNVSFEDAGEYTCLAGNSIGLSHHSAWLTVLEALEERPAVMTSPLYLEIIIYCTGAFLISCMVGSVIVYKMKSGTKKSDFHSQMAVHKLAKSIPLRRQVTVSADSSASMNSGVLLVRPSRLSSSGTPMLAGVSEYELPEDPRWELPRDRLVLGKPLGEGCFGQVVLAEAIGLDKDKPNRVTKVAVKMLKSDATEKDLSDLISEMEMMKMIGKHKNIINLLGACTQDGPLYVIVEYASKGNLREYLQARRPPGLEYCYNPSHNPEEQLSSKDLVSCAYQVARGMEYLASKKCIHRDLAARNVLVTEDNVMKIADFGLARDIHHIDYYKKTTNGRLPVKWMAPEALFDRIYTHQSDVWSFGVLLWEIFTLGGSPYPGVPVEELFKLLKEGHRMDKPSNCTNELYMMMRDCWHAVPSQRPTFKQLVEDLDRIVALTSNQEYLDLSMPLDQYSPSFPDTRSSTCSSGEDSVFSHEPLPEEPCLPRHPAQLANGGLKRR

Binder | Mean E max, Luciferase gene reporter assay [1] | Mean EC50, Luciferase gene reporter assay [1] | koff [2]
B1 | 108% | 0.123 nM | 3.8e-05 s⁻¹
B2 | 45% | 3.02 nM | 2.1e-05 s⁻¹
B3 | 100% | 0.105 nM | 6.4e-05 s⁻¹
B4 | 105% | 0.108 nM | 6.5e-05 s⁻¹
B5 | 110% | 0.129 nM | 5.9e-05 s⁻¹
B6 | 99% | 0.138 nM | 1e-07 s⁻¹
B7 | 101% | 0.117 nM | 1.2e-05 s⁻¹
B8 | 99% | 0.142 nM | 0.0001 s⁻¹
B9 | 104% | 0.123 nM | 5.7e-05 s⁻¹
B10 | 102% | 0.161 nM | 1.6e-05 s⁻¹
B11 | 103% | 0.133 nM | 3.3e-05 s⁻¹
B12 | 99% | 0.107 nM | 4.6e-05 s⁻¹
B13 | 100% | 0.098 nM | 6.2e-05 s⁻¹
B14 | 108% | 0.139 nM | 4e-05 s⁻¹
B15 | 100% | 0.165 nM | 2.2e-06 s⁻¹
B16 | 103% | 0.159 nM | 4.3e-05 s⁻¹
B17 | 100% | 0.186 nM | 5e-05 s⁻¹
B18 | 104% | 0.19 nM | 0.00023 s⁻¹
B19 | 103% | 0.214 nM | 3.3e-05 s⁻¹
B20 | 103% | 0.122 nM | 3.4e-05 s⁻¹
B21 | 95% | 0.206 nM | 0.00033 s⁻¹
B22 | 101% | 0.105 nM | 3.4e-05 s⁻¹
B23 | 103% | 0.161 nM | 3.1e-05 s⁻¹
B24 | 108% | 0.119 nM | 2.8e-05 s⁻¹
B25 | 106% | 0.126 nM | 4.3e-05 s⁻¹
B26 | 103% | 0.169 nM | 4.4e-05 s⁻¹
B27 | 100% | 0.122 nM | 1.4e-05 s⁻¹
B28 | 100% | 0.132 nM | 1e-07 s⁻¹
B29 | 110% | 0.12 nM | 1.7e-05 s⁻¹
B30 | 109% | 0.116 nM | 3.2e-05 s⁻¹
